The values that follow come from publication PMC9424243, “Structure of a nucleosome-bound MuvB transcription factor complex reveals DNA remodelling” (Nature Communications, 2022).

B1: LIN37^FL(1–246) (natural protein, human, UniProt Q96GY3 1-246, looked up)
chain: MFPVKVKVEKSELEMAKARNQLDAVLQCLLEKSHMDRERLDEEAGKTPSDTHNKDCSIAATGKRPSARFPHQRRKKRREMDDGLAEGGPQRSNTYVIKLFDRSVDLAQFSENTPLYPICRAWMRNSPSVRERECSPSSPLPPLPEDEEGSEVTNSKSRDVYKLPPPTPPGPPGDACRSRIPSPLQPEMQGTPDDEPSEPEPSPSTLIYRNMQRWKRIRQRWKEASHRNQLRYSESMKILREMYERQ
notes: LIN37, human, residues 1-246 (LIN37^FL), codon optimised CDS; Carries the StrepII x2 tag by which the MuvB complexes were purified; the tag was removed with 3C protease before the final SEC; also called FL-LIN37; source: Hi-5 insect cells co-infected with MuvB baculoviruses; purified as part of the complex (Strep-Tactin, 3C protease, SEC)
B4: LIN9^FL(1–542) (natural protein, human, UniProt Q5TKA1 1-542, looked up)
chain: MAELDQLPDESSSAKALVSLKEGSLSNTWNEKYSSLQKTPVWKGRNTSSAVEMPFRNSKRSRLFSDEDDRQINTRSPKRNQRVAMVPQKFTATMSTPDKKASQKIGFRLRNLLKLPKAHKWCIYEWFYSNIDKPLFEGDNDFCVCLKESFPNLKTRKLTRVEWGKIRRLMGKPRRCSSAFFEEERSALKQKRQKIRLLQQRKVADVSQFKDLPDEIPLPLVIGTKVTARLRGVHDGLFTGQIDAVDTLNATYRVTFDRTGLGTHTIPDYEVLSNEPHETMPIAAFGQKQRPSRFFMTPPRLHYTPPLQSPIIDNDPLLGQSPWRSKISGSDTETLGGFPVEFLIQVTRLSKILMIKKEHIKKLREMNTEAEKLKSYSMPISIEFQRRYATIVLELEQLNKDLNKVLHKVQQYCYELAPDQGLQPADQPTDMRRRCEEEAQEIVRHANSSTGQPCVENENLTDLISRLTAILLQIKCLAEGGDLNSFEFKSLTDSLNDIKSTIDASNISCFQNNVEIHVAHIQSGLSQMGNLHAFAANNTNRD
notes: LIN9, human, residues 1-542 (LIN9^FL), codon optimised CDS; Subunit of the co-expressed MuvB, MuvB^core and MMB^core complexes; only DIRP and tudor domains are built in PDB 7R1D; source: Hi-5 insect cells co-infected with MuvB baculoviruses; purified as part of the complex (Strep-Tactin, 3C protease, SEC)

Experiment [1] addresses B4. Put plainly: SEC; subunits co-expressed in Hi-5 cells; complex held on Strep-Tactin by StrepII x2 on LIN37, washed with 1000 mM NaCl, tag cut with 3C, then SEC (S200 or Superose 6) in 20 mM HEPES pH 8, 150 mM NaCl, 0.5 mM TCEP. The following applies: partners not purified.
For experiment [2], the target named is B1. Put plainly: mass photometry; purified co-expressed complex diluted from 500 nM just before measurement; 20 mM HEPES pH 8, 150 mM NaCl, 0.5 mM TCEP. To be noted: both partners purified.
Experiment [3] has as its target T1, RbBP4^FL(1–425) (human, UniProt Q09028 1-425).
T1 construct: Subunit of the co-expressed MuvB complexes in which the StrepII x2 tag stands on LIN37; source: Hi-5 insect cells co-infected with MuvB baculoviruses; purified as part of the complex (Strep-Tactin, 3C protease, SEC)
Put plainly: cross-linking; DSSO cross-linking mass spectrometry of 28 μM purified MuvB complex, 10 min on ice, monomeric SEC fraction analysed. To be noted: both partners purified.

Experiment [4] concerns the target B4. The description is as above. The following applies: both partners purified.
Experiment [5] addresses T2, B-MYB^FL(1–700) (human, UniProt P10244 1-700).
T2 construct: B-MYB, human, residues 1-700 (B-MYB^FL), codon optimised CDS; source: Hi-5 insect cells, expressed separately, purified separately as per the MuvB protocol
T2 sequence (looked up): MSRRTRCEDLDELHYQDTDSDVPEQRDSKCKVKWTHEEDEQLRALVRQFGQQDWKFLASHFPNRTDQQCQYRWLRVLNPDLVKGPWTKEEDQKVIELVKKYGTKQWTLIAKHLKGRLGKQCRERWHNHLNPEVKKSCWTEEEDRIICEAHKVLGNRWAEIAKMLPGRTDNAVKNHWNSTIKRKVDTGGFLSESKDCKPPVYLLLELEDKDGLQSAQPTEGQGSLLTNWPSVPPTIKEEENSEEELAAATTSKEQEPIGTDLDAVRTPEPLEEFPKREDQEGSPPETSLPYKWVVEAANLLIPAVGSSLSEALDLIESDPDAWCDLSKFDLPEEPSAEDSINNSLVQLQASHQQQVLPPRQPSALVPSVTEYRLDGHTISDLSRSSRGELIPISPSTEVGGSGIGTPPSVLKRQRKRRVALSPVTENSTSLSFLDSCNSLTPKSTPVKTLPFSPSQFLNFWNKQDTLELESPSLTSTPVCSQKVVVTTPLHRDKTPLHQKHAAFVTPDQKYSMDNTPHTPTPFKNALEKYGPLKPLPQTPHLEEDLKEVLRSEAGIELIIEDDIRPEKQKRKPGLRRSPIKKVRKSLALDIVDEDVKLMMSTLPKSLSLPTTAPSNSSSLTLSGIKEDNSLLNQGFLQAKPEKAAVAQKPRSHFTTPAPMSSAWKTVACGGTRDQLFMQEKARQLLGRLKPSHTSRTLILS
Kind of experiment: cryo-EM structure; MMB^core:NCP167 mixed at 2.5:1, GraFix (glutaraldehyde, sucrose gradient); nucleosome at 3.3 Å, MuvB^HEAD 7.5 Å and MuvB^TAIL 8.7 Å, known structures fitted. To be noted: both partners purified.

T1 sequence (Q09028 whole entry): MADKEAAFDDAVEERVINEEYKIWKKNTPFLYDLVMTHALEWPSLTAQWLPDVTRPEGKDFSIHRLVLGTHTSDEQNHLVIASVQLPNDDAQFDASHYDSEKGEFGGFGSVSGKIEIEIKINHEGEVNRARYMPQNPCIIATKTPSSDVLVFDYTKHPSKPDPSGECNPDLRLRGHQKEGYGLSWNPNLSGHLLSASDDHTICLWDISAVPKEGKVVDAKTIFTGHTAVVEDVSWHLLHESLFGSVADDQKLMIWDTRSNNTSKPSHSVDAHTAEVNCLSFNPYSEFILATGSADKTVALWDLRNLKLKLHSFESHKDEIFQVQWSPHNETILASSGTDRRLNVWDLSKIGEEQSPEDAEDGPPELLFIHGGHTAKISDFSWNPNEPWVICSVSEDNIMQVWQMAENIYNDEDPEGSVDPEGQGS

Take B1: the binding result in experiment [1] is “binds”.

B2: LIN52^FL(1–116) (natural protein, human, UniProt Q52LA3 1-112, looked up)
chain: MASPTDGTDLEASLLSFEKLDRASPDLWPEQLPGVAEFAASFKSPITSSPPKWMAEIERDDIDMLKELGSLTTANLMEKVRGLQNLAYQLGLDESREMTRGKFLNILEKPKK
notes: LIN52, human, residues 1-116 (LIN52^FL), codon optimised CDS; source: Hi-5 insect cells co-infected with MuvB baculoviruses; purified as part of the complex (Strep-Tactin, 3C protease, SEC)
The stoichiometry N is a count of units in the complex or per binding partner. For B2, in experiment [2], the “stoichiometry N” value came out at 1.

B3: LIN54^short(515–749) (domain or fragment, human, UniProt Q6MZP7 515-749, looked up)
chain: SESASRPRKPCNCTKSLCLKLYCDCFANGEFCNNCNCTNCYNNLEHENERQKAIKACLDRNPEAFKPKIGKGKEGESDRRHSKGCNCKRSGCLKNYCECYEAKIMCSSICKCIGCKNFEESPERKTLMHLADAAEVRVQQQTAAKTKLSSQISDLLTRPTPALNSGGGKLPFTFVTKEVAEATCNCLLAQAEQADKKGKSKAAAERMILEEFGRCLMSVINSAGKAKSDPCAMNC
notes: LIN54, human, residues 515-749 (non-conserved N-terminus removed), codon optimised CDS; also called short version of LIN54; source: Hi-5 insect cells co-infected with MuvB baculoviruses; purified as part of the complex (Strep-Tactin, 3C protease, SEC)
On to B3, for which the “stoichiometry N” value in experiment [2] was determined as 1. Moreover, the binding result in experiment [3] and in experiment [4] was “binds” throughout.

For B4, the “stoichiometry N” value in experiment [2] stood at 1. Moreover, in experiment [5], the binding result is recorded as “binds”.
